The values that follow come from patent US8546537B2, “Streptavidin having low immunogenicity and use thereof” (The University of Tokyo, priority 2009, dated 2013).

In data set [1] the target is ROBO1 (Homo sapiens, UniProt Q9Y6N7). The experiment in a line: Isothermal Titration calorimetry (ITC) of B5209B mouse-scFv-mcSA414 and ROBO1. Format: binding. The source says: By Isothermal Titration calorimetry (ITC), the interaction of B5209B mouse-scFv-mcSA414 and ROBO1 was subjected to […] analysis.
Sequence of ROBO1 (Q9Y6N7 26-1651, species assumed): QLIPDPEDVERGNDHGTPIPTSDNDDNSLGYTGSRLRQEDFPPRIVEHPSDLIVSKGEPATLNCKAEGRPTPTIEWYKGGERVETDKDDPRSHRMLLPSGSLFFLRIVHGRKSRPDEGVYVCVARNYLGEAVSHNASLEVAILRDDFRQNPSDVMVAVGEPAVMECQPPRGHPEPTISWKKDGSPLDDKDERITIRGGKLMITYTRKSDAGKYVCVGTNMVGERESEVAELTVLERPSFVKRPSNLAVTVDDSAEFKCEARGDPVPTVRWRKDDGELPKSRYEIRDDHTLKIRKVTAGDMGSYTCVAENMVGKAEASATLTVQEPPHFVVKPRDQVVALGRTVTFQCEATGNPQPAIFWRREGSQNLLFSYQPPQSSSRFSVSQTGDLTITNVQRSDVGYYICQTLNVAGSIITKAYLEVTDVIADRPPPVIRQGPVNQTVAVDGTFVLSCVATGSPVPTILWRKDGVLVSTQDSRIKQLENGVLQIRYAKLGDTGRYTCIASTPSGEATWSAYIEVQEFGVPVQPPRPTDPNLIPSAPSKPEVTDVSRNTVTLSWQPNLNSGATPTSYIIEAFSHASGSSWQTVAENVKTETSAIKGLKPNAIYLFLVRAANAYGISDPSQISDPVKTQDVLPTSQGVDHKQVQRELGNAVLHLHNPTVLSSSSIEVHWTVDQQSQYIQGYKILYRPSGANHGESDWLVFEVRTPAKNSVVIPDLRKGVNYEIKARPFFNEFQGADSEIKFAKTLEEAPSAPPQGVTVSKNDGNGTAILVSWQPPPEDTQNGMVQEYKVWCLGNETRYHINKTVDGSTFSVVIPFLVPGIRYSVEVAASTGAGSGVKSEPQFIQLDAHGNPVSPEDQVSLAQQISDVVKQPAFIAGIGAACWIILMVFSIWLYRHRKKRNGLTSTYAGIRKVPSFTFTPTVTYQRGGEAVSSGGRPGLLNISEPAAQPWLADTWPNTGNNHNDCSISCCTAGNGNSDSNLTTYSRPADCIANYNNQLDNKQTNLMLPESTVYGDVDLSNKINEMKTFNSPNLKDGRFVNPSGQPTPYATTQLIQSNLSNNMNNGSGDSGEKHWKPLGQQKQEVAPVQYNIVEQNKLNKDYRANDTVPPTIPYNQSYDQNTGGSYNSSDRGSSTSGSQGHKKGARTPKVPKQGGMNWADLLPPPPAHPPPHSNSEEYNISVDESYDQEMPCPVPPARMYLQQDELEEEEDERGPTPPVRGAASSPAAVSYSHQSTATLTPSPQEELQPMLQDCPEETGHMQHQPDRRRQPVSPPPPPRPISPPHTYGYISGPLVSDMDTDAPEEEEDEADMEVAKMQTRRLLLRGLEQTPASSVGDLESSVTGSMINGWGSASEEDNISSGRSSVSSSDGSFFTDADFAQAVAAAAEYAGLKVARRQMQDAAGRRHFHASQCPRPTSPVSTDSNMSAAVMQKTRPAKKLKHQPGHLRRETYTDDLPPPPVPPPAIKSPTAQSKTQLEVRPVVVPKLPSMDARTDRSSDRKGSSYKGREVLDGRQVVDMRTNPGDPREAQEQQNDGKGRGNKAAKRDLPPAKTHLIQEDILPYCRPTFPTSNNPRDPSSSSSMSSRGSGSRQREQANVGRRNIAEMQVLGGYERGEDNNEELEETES
Data set [2] is described as follows: Differential Scanning calorimetry (DSC) thermal stability. Format: physicochemical. As to conditions: PBS. As for the experimental part:
By Differential Scanning calorimetry (DSC), the thermal stability of B5209B mouse-scFv-mcSA414 was evaluated. PBS was used as a solvent. […] Accordingly, the temperature necessary for denaturation of the scFV domain of B5209B mouse-scFv-SA is assumed to be Tm 51.4° C., and the temperature necessary for the complete denaturation of a single molecule thereof is assumed to be Tm 108° C. Moreover, since the temperature for dissociation of a streptavidin domain tetramer was not detected, it is assumed that the streptavidin was completely denatured without the dissociation of a tetramer.

B1: B5209B mouse-scFv-mcSA414: fusion of anti-ROBO1 monoclonal antibody B5209B mouse scFv and mcSA414, SEQ ID NO: 16 (protein, listed as Mus sp.)
chain: MAEVQLVESGGGVVQPGGSLKLSCAASGFTFSTYDMSWVRQTPDKRLELVATINSNGGSTYYPDSVKGRFTSSRDNAKNILYLQMSSLKSEDTAMYYCAREALLRPPYYALDYWGQGTSVTVSSAGGGGSGGGGSGGGGSDILDIQMTQSPASLSASVGETVTITCGASENIYGALTWYQRKQGKSPQLLIYGAINLADDKSSRFSGSGSGRQYSLKISSLHPDDVATYYCQNVLSTPFTFGSGTKLEIKAAGSSGSGSAAEAGITGTWSNQLGSTFIVTAGADGALTGTYESAVGNAESRYVLTGRYDSAPATDGSGTALGWTVAWKNNSKNAHSATTWSGQYVGGADAKINTQWLLTSGTTQANAWKSTLVGHDTFTKVKPSAASGARHHHHHH
Take B1: in data set [1], the “binding ratio: molecules of ROBO1 bound to a tetramer” value is recorded as 2, the “change in ΔH compared with scFV” value is given as “no significant change”, the “reduction in affinity compared with scFV” value is recorded as “approximately one order of magnitude” and the “ΔS value compared with scFV” value is reported as “approximately 1/40”. In data set [1] (25° C., PBS), the “amount of enthalpy change (ΔH)” value is -3.85 kcal/mol and the “amount of entropy change (ΔS)” value was −22 J/mol·K. Also, in data set [2], the “temperature for dissociation of a streptavidin domain tetramer” value is “not detected”, the “temperature necessary for denaturation of the scFV domain (Tm)” value was 51.4 °C and the “temperature necessary for the complete denaturation of a single molecule (Tm)” value amounted to 108 °C.
